# Paper PMC5302886, “Structure and function of the mycobacterial transcription initiation complex with the essential regulator RbpA” (eLife, 2017)
# Biological target: T1, M. smegmatis RNA polymerase β’ subunit (M. smegmatis, UniProt A0QS66 1-1317)
# T1 construct: RNA polymerase β’ subunit of Mycobacterium smegmatis mc2155, native chromosomal copy of rpoC with a C-terminal PreScission site and His10 tag; In the crystal β’ stood as part of the whole σ^A-holoenzyme, not as an isolated subunit; also called RNAP β’-ppx-His10; rpoC product
# Assay: crystal structure; Msm RbpA/σ^A-holo mixed 1:1 with T10 upstream fork promoter DNA (RbpA/TIC, 446 kDa); hanging drop vapor diffusion at 22°C, 0.1 M Bis-Tris pH 6.0, 0.2 M LiSO4, 16% PEG 3350, 2.5% ethylene glycol; 2.76 Å
# Conditions: both partners purified
row,Binder,binding result
1,"M. smegmatis σ^A (natural protein, primary (group 1) sigma factor σ^A of Mycobacterium smegmatis; domains σ^A2, σ^A3, σ^A4 named in the text; Plasmid Msm pET-SUMO σ^A received from C; Stallings; also called Msm σ^A; SigA) MAATKASPATEEPVKRTATKTPAKKAPAKRAAKSAAAKAGGKAPAKKAPAKRAAKGTAAKPEDGVTDDLEVTDDLEAEPGEDLDVEDTDLELDDLDSDDDTAVEDEEEEADAATPAVATAKAADDDIDEPSEKDKASGDFVWDEEESEALRQARKDAELTASADSVRAYLKQIGKVALLNAEEEVELAKRIEAGLYATQKLAELAEKGEKLPVQQRRDMQWICRDGDRAKNHLLEANLRLVVSLAKRYTGRGMAFLDLIQEGNLGLIRAVEKFDYTKGYKFSTYATWWIRQAITRAMADQARTIRIPVHMVEVINKLGRIQRELLQDLGREPTPEELAKEMDITPEKVLEIQQYAREPISLDQTIGDEGDSQLGDFIEDSEAVVAVDAVSFTLLQDQLQSVLETLSEREAGVVRLRFGLTDGQPRTLDEIGQVYGVTRERIRQIESKTMSKLRHPSRSQVLRDYLD",binds
2,"M. smegmatis RbpA (natural protein, RbpA of Mycobacterium smegmatis mc2155 (MSmeg_3858), cloned from genomic DNA into pet21C; elements NTT (25 residues, disordered in the crystal), CD, BL (residues 70-79), SID; 114 residues by the printed truncations (28-114aa, 72-114aa); the complex was held on the Ni2+ column by the His10-SUMO tag of σ^A and came in the flow-through after that tag was cleaved; The NTT was in the crystallised …) MADRVLRGSRLGAVSYETDRNHDLAPRQVARYRTDNGEEFDVPFADDAEIPGTWLCRNGLEGTLIEGDVPEPKKVKPPRTHWDMLLERRSVEELEELLKERLDLIKAKRRGTGS",binds
